Experiment: label from the status in PepcDB records

Row | Sequence | protein production
1 | MVLVLDFGSQYTRLIARRLRELRAFSLILPGDAPLEEVLKHRPQALILSGGPRSVFDPDAPRPDPRLFSSGLPLLGICYGMQLLAQELGGRVERAGRAEYGKALLTRHEGPLFRGLEGEVQVWMSHQDAVTAPPPGWRVVAETEENPVAAIASPDGRAYGVQFHPEVAHTPKGMQILENFLELAGVKRDWTPEHVLEELLREVRERAGKDRVLLAVSGGVDSSTLALLLAKAGVDHLAVFVDHGLLRLGEREEVEGALRALGVNLLVVDAKERFLKALKGVEDPEEKRKIIGREFVAAFSQVARERGPFRFLAQGTLYPDVIESAGGHGAAKIKSHHNVGGLPEDLEFELLEPFRLLFKDEVRELALLLGLPDTLRLRHPFPGPGLAVRVLGEVTEERLEILRRADDIFTSLLREWGLYEKVAQALAVLTPVRSVGVAGDERKYGYVLALRAVTTEDFMTADWARLPLEFLDEAARRITRRVPEIGRVVYDLTSKPPATIEWE | not failed
2 | MVLYFLSSIIIAPIKTGDKAPQVDECCLKTVSDLTFFTNNEKYIWPVPDFCVRMELLAFEAIPQLSKKIIEDIPGAYQGCPRMCKVKFKKNHLKGFTLDTIYAELGTTHVIDCIVTPRIEEQELMKTIMEEEDDDDVADVVVESWLKRHKEGRLIMFDELYQQDIQTLKITSSR | failed
3 | MVNDIKKTALAVVTALITAVSAQLSFKIGPVPYTMQNFGVMLSGFLLGPYYGLLSMAIYLALIAFSLPIAAGGGGLGVLIGPTAGFLYGFLISSFLAGVFRRAIWREGSRREVLMLWLSTLVASMPIYLLGFFVFYNFAMIDEKLLIRSESAVRAFNLSFSSPTMVIFAATVLIFLPQDFFVDHLLAVLVFRYVHRMLNERGVEVD | failed
4 | MVNEYKAHSSFILKVVITLIGYWIASILAIIIYSMFFKIETNTFLLCLLLPTPIIWFNILIGMGLTYRCMENLTIYDKHKLWCVFVRDLTLTILATILATLTTMELYQIEHPLKPIEFVFIVGLVLIVGFTIITTLIIKYLKIIKNLKKISKN | failed
5 | MVNFDCVIEELDEKTKEMLRVIDEDADSFAARAEMYYKKRPELIAMVEEFYRSHRSLAERYDLLRPSSVHKHGSDSESHEKSSTCDESSWSEACETHEEYAESEIDNGESKWVDESEIDGIVEEIEPSEVVYSEGNGNSEMMKIEIERLREENKVYSEMVREKDEEKREAIRQMSVAIQMLKEENSELKKRVTNTVVARRNKEGGDSQRKQQMWKPFEFKKIKLEGLWGKGFGNWALPNTDSTSKELMTL | failed
6 | MVNIFWFSLAVIIYSYFIYPFILLIFSAVKQAISDTRYLWKKSQRRVVDKDNLPPVSIIIAAYNEESCIKARVENLLSLDYPQDKLTILIGSDGSQDKTAEILTSFDAVNLKVHIFEKNRGKMSVLNDLVEQVNSDYIVFSDANTHFNKNTIEYLVRHFNHDNIGAVCGELHLVDVDSGDNKDNIYWRYEQVLKFHEARLNALQGANGAIYAIRKELFIPLPANTIVDDFQIAMNVAKQGFRLIYDPEAIAIEEIAPNLQAEEGRRVRIGLGNYQALFTMAWALNPLLGWRFIAYISHKVCRWFVPHLMLITLISNLLLISNPLYQLLFIGQILFYSVAFYGIKKQQKRQKVSSIIGIIAFFVSMNIALMRGFIRYFSSNVQGTWERTTR | failed
7 | MVNLMKNEKEINGKKSHFFSLSESRFMRFLGGNDLIYALIALVLLGIVIFIFDKISYVFQPFIIVFNTIAAPIIVSLVLFYLFNPIVNMMERYRIPRLLGITIIYVAIIGIITLIVNLLIPIIGSQIESFIKNTPNYLHKITRSLDKLNNNTILSGYMGQVNEWLESAQKKIPSMVSDYSDGFGSKLATFAEAVANIGIVIGTTPFVLFFMLKDGHKFKDYTTKIMPPKFRKDFHDLLEKMSVQVGSYIQGQIIVSFCIGLLLFIGYSIIGLKYALVLASIAAVTSVVPYLGPTIAISPAIVIAIITSPLMLLKLAVVWTLVQFFEGHFISPNVMGKTLKIHPLTIIFILLCAGNLMGIVGVIIGIPLYAVLKVLVSHIFMLFKRRYNRYYGNDAGEYTITEEEKGIKQ | failed
8 | MVNPTISDDLFAMIAKKVADKSWLDLKPLIRSGTRGRDIVYRPDVLKDANIYSLCRVPDDFQVGGGHNPTGPQGEGRNRPFFKRCLLANNPTAVYNEAIRVLIHETDINGALKLMQRHAPVRADATIVCAIIFICAGYEWN | not failed
9 | MVNQEKTLDVGFTHADFAALLDRYDYHFNPGDIVAGTVFSIEPKGALIDIGAKTAAYIPIQEMSINRIESPEEVLQPNETREFFILADENEEGQLTLSIRRIEYMRAWERVRQLQAEDATVRSQVFATNRGGALVRIEGLRGFIPGSHISTRVNKEELVGEELPLKFLEVDEERNRLVLSHRRALVERKMNKLEVGEVVVGTVRGIKPYGAFIDIGGVSGLLHISEISHDHIDTPHSVFNVNDQVKVMIIDLDAERGRISLSTKQLEPEPGDMVKNPQLVYEKAEEMAERYRQQLLQQQQQAAGETPEEGMEDIPEATEDDSPAPILQEALEHHHHHH | failed
10 | MVPAAMRGLNLALVDIGAGTSDIAITGQGTISGYAMVPSAGDEITEALASALILDFNTAERVKRQLSTRENLTFTDVVGQRHTLAAAELMEIIKPAVTELARQVATQIILLNGKPPQAVLLIGGGSLTPGLAAALAGQLEISPERVALEHHHHHH | failed
11 | MVPKFYKLSNGFKIPSIALGTYDIPRSQTAEIVYEGVKCGYRHFDTAVLYGNEKEVGDGIIKWLNEDPGNHKREEIFYTTKLWNSQNGYKRAKAAIRQCLNEVSGLQYIDLLLIHSPLEGSKLRLETWRAMQEAVDEGLVKSIGVSNYGKKHIDELLNWPELKHKPVVNQIEISPWIMRQELADYCKSKGLVVEAFAPLCHGYKMTNPDLLKVCKEVDRNPGQVLIRWSLQHGYLPLPKTKTVKRLEGNLAAYNFELSDEQMKFLDHPDAYEPTDWECTDAP | failed
12 | MVQELLKQLQNGEAKFADVLAYIESRFEHQPTAFKNGQQQNAATENQGSAKVFSLAQIEGLNQTETLSLFAEHYAAVLNTPEGTDHQNIRQFMQHGWDGVTFEGEALQAK | failed
13 | MVQIAGTPVPLSAKSRGPNALSSLLAALFLLLSQPASGAEAKQCIDNAELDAADKAFNSLHYAKADSLYQSMLQTGDQSSTLYWKLARLNISIAEAIDPSERKKRIPFYNKAVEYARKSVQLDENNASAHTWLAAALALKADKIGAKEKLNRAAEIKRELDKALALNPNDDVAWSMLGSYNFEASKIGWFSRFMGSTFVGKMPKGSREEAEKDFKKAISLNPRVIRHYHELALLYLEEDRKQEALNTLRIAETRPVLMKSDVRRLKEIKKLIAKLSKEIEEK | failed
14 | MVQSAPASEIAALILRGFDDYREQFREITDGARARFEQAQWQEAQRASAQRINLYEEKVAETVAGLRAGLADSELLDVERWPIIKSAYIAQIDLRLDDELAETWFNSIFCGLFSHDNISDGTMFVHTTRPSLRAHARAPYTRTYRPGGDLRQALEKIFDDYRFDVPYDDRERDLERIDALLHSNLPDWVCKDPDLAIELIGSVFYRNKGAYLVGRLFTPDEQWPLVFPLLHREDHGIQFDTVITDEAEVSIIFSFTRSYFMVDVPVPAELVAFLKRLLPGKHLAELYTSIGFYKQGKSEFYRALINHLATTDDRFVMAPGVRGMVMSVFTLPGFNTVFKIIKDRFNPSKSVDHATVIQKYQLVKNHDRVGRLADTQQFADFRFPVSKFEPECLAELLEVAPSTVVMEGDVVLIRHCWTERRMTPLNIYLENASEAQTREALNDYGLAIKQLAAANIFPGDMLLKNFGVTRHGRVVFYDYDEICYLTEVNFRYIPEPRFPEDEMSSEPWYSVGPNDVFPEEFPRFLFVDLNQRRLFAKLHGNLYDAKYWQGLQEQIREGKVIDVFPYRRQETPEQLLG | failed
15 | MVRADEMMDICMLAGEIMLINGAETYRVEETLERMAKAGQFRNVHSFVTTTGIFLSFEEEGAGDVMQMIRVDDRMQDLNKVTLVNQVSREFVNGEIDAAEALTKLQNIAKQPMNYSPLLLHTASGVAGGAFSYLFGGNLFDTLPAFIAGFVASMAVVHLQSYLKVRFFAEFMAAFTGGAVAILLVLIGLGENVDQVIIGTLMPLVPGIPLTNAVRDLISGDLLAGVTRGAECFVTSLSIATGIALAIALLS | failed
16 | MVRKGQMIIGAFACLIASMSWGAMFPVADHALEYIDPFYFSLIRYGAVAIMLIVLLLMKEGKQAFRLEGRGRLLVFFGTMAFTVYNVLIFLGQMLMGKSGVMVASIMEALMPMISICILWGYKRVKPKKYMITSMIIAFIGAVFVITKGDVSFFLTLKDNMFSLACIFVGVVGWVIYTMGGQTCSDWSTLRYSTLTCVFGTTVTGIITVLITSLGYVSVPSMGTISVVKYDLLFMMTLPGIVALLAWNYGVKILSSINGILFINFVPITTLVIMMMQGYQITMFDIVGTLFVIAALIRNNVCQRKEENINKKMLQEEQLRQAV | failed
17 | MVRVGMRAAPRVSLEALKAALGGLKLSEAKVYLITDWQDKRDQARYALLLHTGKKDLLVPDAFGPAFPGGEEALSELVGLLLAQGARRFYEAVVSPGEMTALLDLPPEELLKRVMAIANPTDPGIYLKRAA | not failed
18 | MVRVLSAGPELAFRSGDVVAPARTHPLVAAAPSCPMTAAAPRERADRWPRREDLFAIAYYLAAAAVLAWAGYAAWRIGVVLAGGALQQVGVRSCRQRDASRCVNATFDRIALYVVLGQASFFLTTALAAAVTGGEQSPLILPFLGSYFVAVSVVGDRVATRGLLAATAFGAAVLALLPDAVAGPALPALQRGVLTVVSVLGVGALLAPAHAETRRKRDQVARARSEMVSDALSRAQGLEQVGAKVAHELKNPLTGVKALVQLGLRNPAEAASHERLEVVDREVTRMQEIIQNYLSFNRPLQSVNPRQVALGPLVSDTMLVLSARADEARVRLYARGDASLEADPRRLKEALLNLVANAIEATPAGGEVVVEARELSGDEVELVVRDTGRGMPPETLRRIGTPFFTTRDDGTGLGVVLARAVIVQHGGTLRYESEPGSGTKVLVTLPRAAKRSGDVARAAGG | failed
19 | MVRVPLTAEELERGQRLGELLRSARGDMSMVTVAFDAGISVETLRKIETGRIATPAFFTIAAVARVLDLSLDDVAAVVTFGPVSTS | not failed
20 | MVSAAGELGTLRQRAWAAAANVVDPEIPVLTIEDLGVLRDVTVSGDRIEVSITPTYSGCPAMTMIALEIELALAREGIAGAKITTVLSPAWTTDWMSDAGRRKLRDYGIAPPLSGGGRRALFGEQQVACPQCGSIATTVLSEFGSTSCKALWRCLDCREPFDYFKCH | failed
21 | MVSACGLIALGLDNQAARMAARLRDLAREWRALPPHAARRGAVAEQVAVLDRRHGLYSRALLLNYGALFAFVVTSLLWLGQAYWSVPPELPVLVFGLGVAMLAAMAVLVIASITLARSTIEAEAAEVLRERRAPPASGRPAPARG | failed
22 | MVSANREMAVYCFDTLVSHYNNEETPPPAFEEANHPLFVTWKKIVNGGEPRLRGCIGTLEARRLISGFKDYALTSALRDRRFPPIQAKELPSLQCTVSVLTDYEDAEDYLDWEVGKHGIIIEFTEPETNTKRSATYLPEVPAHEGWTKIEAIDSLVRKAGYNGVITEAVRRRINLTRYQSTLFSMHYSEYLSYVKATRGVVGPVINGINKHAFA | failed
23 | MVSLIAKIHRRRAYLTVIAIMTFIVRLIPSRNFTLAGNDAYIHHDIVMRIAREGLGIIGHDIPSLMGLKAYAYPPLFHVMGYGLYLLFRSELVFFFISPLLGTATVLVIYKVARETFEREEVALLSAFLFSMVPSFVARTSVFIPESMGLLLTSGILYMLVKYLKTTPGYPDIDKFELKAFSNLFRGDLRYILGGLALFVIYLFTHRGWVFLLIALLLLAVTFLTPSFRKRPLEFGLIFLLIGAGIIEFITFAARFQSVPVTILGFPKWMGVLQLILGIYGASLLLRSKNPIHRFLIIWATAFMIIGTYSFRFRDPYAAIPLSLMGGYAFSEVKGRLYASKRFKSYSIMKRDVKPFLRTGIFALLVLMPLAQGAAIAYTGVTTPSPQQNAAFRWINDNTPQDAVFLSAIEDSYSLIGNTHRRDVLLWKTVYEGFMGSAPSLKENTMTRDEVSAIFQSSIPSETSYLLERNNISYIYISKSMHMKGIGLQLPVDPHFKTCFVSGDVSVYRYIKNPGIQSNYSSITVNGEDGKVVEFIEKFWNGYSQGTEPSHQGVSTL | failed

Reference: a protein production outcome set (Wang et al. 2014)
